From the nanobody polyreactivity screen of Harvey et al. (2022)

Test: yeast display, Sf9 membrane polyspecificity reagent, FACS + sequencing; frameworks hold sequencing errors
Procedure, shortened: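 Synthetic nanobody libraries on Saccharomyces cerevisiae BJ5465 were galactose-induced for 36–48 hours, stained 1 hour at 4 °C with 10% biotinylated, detergent-solubilized Sf9 membrane reagent and enriched on streptavidin microbeads. FACS then separated cells into low and high (top ~1%) gates by anti-HA (expression) and streptavidin (reagent binding) fluorescence. Genes were colony-PCR amplified, MiSeq 2 × 250 sequenced and CDR-length filtered. A clone's polyreactivity label is that of its gate of origin.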

Sequence | polyreactivity (PSR sort gate)
QGQLVESGGGLVQAGGCLRLSCAASGGTFDYNAMGWYRQAPGKERELVAAITSGASTYYADSVKGRFTISRDNAKNTVYLQMNSLKPQDTAVYYCAKGPTPGYDYWGQGTQVTVSS | low polyreactivity
QVQLVESGGGLVQAGGTLRLSCAASGLTFGYNAMVWYRQAPRKERELVATISYSGGRTYYADSVKGRFTISRDTAKNTVYLQMNSLKPEDTAVYSCAARRASGPYGFGYWGQGTQVTVSS | high polyreactivity
QVQLVESGGGLVQAGGSLRLSCAASGSILGTYAMGWYRQAPGKERELVAAISSSGRTSYADSVKGRFTISRDNAKNTVYLQMNSLKPEDTAVYYCNASNYIVLINDPDAAPWLYDYWGQGTQVTVSS | low polyreactivity
QVQLVESGGGLLQAGGSLRLSCAASGFILNAYTMGWYRQAPGKERELVATITINGGSTYYADSVKGRFTISRDNAKNTVYLQMNSLKPEDTAVYYCNADYWYKYDYWGQGTQVTVSS | low polyreactivity
QVQLGESGGGLVQAGGSLRLSCAASGNIFYANAMGWSRQAPGTERELLAAISGSGGSTYADSVKGRFTISRDNAKNTVYLQMNSLKPVDTAVYYCNASVLDAIFYKSVGYDYWGQGTQVTVSS | low polyreactivity
QVQLVESGGGLVQAGGSLRLSSAASGFIFNTNAMGWYRQAPGKERELVAAISGGGSTYYAVSVKGRFTLSRDNAKQTVYLQMNSLKPDDTAVYYCAAVPFYRYDYWGQGTQVTVSS | low polyreactivity
QVQLVESGGGLVQAGGSLRLSCAAYGRTLRYYAMGWYRQAPGKERELVAAISSGGTTNYADSVKGRFTISRDNAKNTVYLQMNSLKPEDTAVYYCAARYRRFRFTQYDYWGQGTQVTVSS | high polyreactivity
QVQLVESGGGLVQAGGSLRLSCAASGRTYVRNGMGWYRQAPGKERELVAAISRGGSTNYADSVKGRFTISRDNAKNTVYLEMNSLKPEDTAVYYCNARTAEYRPYYYRYNYWGQGTQVTLSS | high polyreactivity
QVQLVESGGGLGQAGGSLRLSCAASGSTFTRYGMGWSRQAPGKERELVAAITTSGSSTYYADSVKGRFTISRDNAKNTVYLQMNSLKPEDTAVYYCAADWSSWGFDYWGQGTQVTVSS | low polyreactivity
QVQLVESGGGLVQAGGSLRLSCAASGRTLPEYGMGWSRQAPGKEREFVAAISTRGGSTYYANSVKGRFTISRDNAKNTVYLQMNSLKPEDTAVYYCAKVYDRSCGDYWGQGTQVTVSS | low polyreactivity
QVQLVESGGGLVQAGGSLRLSCAASGRTFKYYTMGWYRQAPGKERELVAAISGGGGITNYADSVKGRFTISRDNAKNTVYLQMNSQKPEDTAVYYCYARYNSWRYLAQYNYWGQGTQVTVSS | high polyreactivity
QVQLVESGGGLVQAGGSLRLSCAASGSTFWANAMGWYRPAPGKERELVAAISRNGGSTYYADSVKGRFTISRDNAKNTVYLQMNSLKPEDTAVYYCAAKKYYYRRQLDYWGQGTQVTVSS | high polyreactivity
QVQLVESGVGLVQAGGSLRLSCAASGISFLVYAMGWYRQAPGKERELVAAISADAGGTYYADSVKGRFTISRDNAKNNVYFQMNSLKPEDTAVYYCNVDGRSDGDDYWGQGTQVTVSS | low polyreactivity
QVQLVESGGGLVQAGGSLRLSCAASGNIFYINAMGWYRQAPGKERELVAAISSGGRTNYADSVKGRFTISRDNAKNTVYLQMNSLKPEDTAVYYCGAEGPEIKYYYWGQGTQVTVSL | low polyreactivity
QVQLVESGGGLVQAGGSLRLSCAASGNTFNRYAMGWYRQAPGKESELVATISYRGGSTSYADSVKGRFTISRDNAKNTVYLQMNSLKPEDTAVYYCATEEGYVLYKYYSWGQGTQVTVSS | low polyreactivity
QVQLVESGGGLVQAGGSLRLSCAASGFIFYRNAMGWYRQAPGKERELVAAISQRGGRTYADSVKGRFTISRDNAKNTVYLQMNSLKPEDTAFYYCAADGARLSQTTRRFDYWGQGTQVTVSS | low polyreactivity
QVQLQESAGGLVQAGGSLRLRCSASGYISCDASMGSYRQAPGKERELAASITKGSSTNYADSVKGRFTIRDNAKNTVYLQMNSLKPEDTAVCYCAVTYPYWGDYTYWGQGTQVTVSS | low polyreactivity
QVQLVDSGGGIVQAGGSLRLSCAASGSTFVANAMGWYRQAPGKECEFVAAISRSGVRTYYADSVKGRFTISRDNAKNTVYLQMNSLKPEDTAVYYCAADGYWWTYSRYDYWGQGTQVTVSS | low polyreactivity
QVQLVESGGGLVQAGGSLRLSCAASGLTFVYYAMGWYRQAPGKEMELVAAITSGGTTHYADSVKGRFTISRDNAKNTVYLQMNSLKPEDTAVYYCAATLGRWKRTYGYWGQGTQVTVSS | high polyreactivity
QVQLVESGGGLVQAGGSLRLSCAASGITFYRYAMGWYRQAPGKERELVAAIRGGGASTYYADSVKGRFTISRDNAKNTVYLQMNSLKPEDTAVYYCAARAARSITNGYWGQGTQVTVSS | high polyreactivity
QVQLVESGGGLVQAGGSLRLRCAASGSTFNRYAMGWYRQAPWKERELVAAINWRGGRTYYADSVKGRFTISRDNAKNTVYLQMNSLKPEDTAVYYCNADVTSLTRVHGRFIVSDDDYWGQGTQVTVSS | low polyreactivity
QVQLVESGGGLVQAGGSLRLSCAASGLIIRWYAMGWYRQAPGKERELVAAITRAGSTNYADSVKWRFTISRDNAKNTVYLQMNSLKPEDTAVYYCAAVAVELASEYDYWGQGTQVTVSS | low polyreactivity

Sequence | polyreactivity (PSR sort gate)
QVQLVESGGGLVQAGGSLRLSCAASGSTFYEYAMGWYRQAPGKERELVATINWS | low polyreactivity
QVQLVESGGGLVQAGGSLRLSCAASGRTFYVNAMGWYRQAPGKEREFVATITRTGGDTYYADSVKGRFTISRDNAKNTVYLQMNSHKPEDTAVFYCNAEGYTVKYWYSRYDYWGQGTQVTVSS | high polyreactivity
QVQLVESGGGLVQAGGSLRLSCAASGRIFAAYAMGWYRQAPGKERELVAGISRGGRTYYADSVKGRFTISRDNAKNTVYLQMNSLKPEDTAVYYCAKRATGQYSITAYGYDYWGQGTQVTVSS | low polyreactivity
QFQLVESGGGLVQAGGSLRLSCAASGRIFASIGMGWYRQAPGKEREFVAAINRSGGSTYYADSVKGRFTISRVNAKNSVYLQMNSLKPEDTAVYYCNKDYLYSYLWGWKVYSYDYWGQGTQVTVSS | low polyreactivity
QVQLVESGGGLVQAGGSLRLSCAASGSTLNDYTMGWYRQAPGKERELVAAIRVSGARTFYADSVKGRFTISRDNAKNTVYLQMNSLKPEDTAVYYCAARWYIANPLSPSDYWGQGTQVTVSS | low polyreactivity
QVQLVESGGGLVQAGGSLRLSCAASGYTFTHYAMGWYRQAPGKERELVASISQSGGSTYYPDSVKGSFTISRDNAQYTVYGQMNSLKPEDTAVYYCAVDYYYDQSLYEYCGQGTQVTVSS | high polyreactivity
QVQLVESVGGLVQAGGSLRLSCAASGSIFAIYVMGSYRQAPGKERELVAAISYRSGSTYYADSVKGRFTISRDNAKNTVYLQMNSLKPEDTAVYYCAATSRYYTFGYWGQGTQVTVSS | low polyreactivity
QVQLVESGGGLVQAGGSLRLSCAASGRTFRYYTMGWYRQAPGKEREFVAAISSTGGTYYADSVKGRFTISRDNAKNTVYLQMNSLKPEDTAVFYGAATFIQVVVNGQLYDYDYWGQGTQVTVSS | low polyreactivity
EVQLVESGGGLVQAGGSLRLSCAASGFTFSYNAMGWYRQAPGKERELVAAIDWGGGSTYADSVKGRFTISRDNAKNTVYLQMNSLKPEDTAVYYCAAYIPSSGRNPEIGVEYDYWGQGTQVTVSS | low polyreactivity
QVQLVESGGGLVQAGGRLRLSCAASGGTFYLIAMGWYIQAPGKERELVAAISGSGTSTYYADSVKGRFTISRDNAKNTVYLQMNSLKPEDTAVYYCAADGTYFYIYLGDRFDYWGQGTQVTVSS | low polyreactivity
QVQLVESGGGLVQAGGRLRLSCPASGGTFGYNAMGWYRQAPGKERELVAAIRNGGSTYFADSVKGRFTISRDNAKNTVYLQMNSLKPEESAVYYCAAGPRGTGKYYWGQGTQVTVSS | high polyreactivity
QVQLVESRGGLVQAGGSLRLSCAASGSIFYVYAMGWYRQAPAKERELVAAITSSGTTNYADSVKGRFTIPRDNAKNTVYLQMNSLKPEDTAVYYCAADPDSGQVPFDYWGQGTQVTVSS | low polyreactivity
QVQLVESGGGLVQAGGSLRLSCAASGLILVPNTMGWYRQAPGKERELVAAISYSGGGTYYADSVKGRFTISRDNANNTVYLQMNSLKPEDTAVYYCAAYVKRESAPYGYWGQGTLVTVSS | low polyreactivity
QVQLVESGGGLVQAGASLRLSCAASGSIFFPYAMGWYRQAPGKERELVASITRAGSTNYADSVKGRFTISRDNAKNTVYLQMTSQKPVDTAVYYCAARNYRQFEYGYWGQGTLVTVSS | low polyreactivity
QVQLVESGGGLVQAGGSLRLSCAASGRTVSSNAMGWYRQAPGKERELVASISFRGGRTYYADSVKGRFTISRDNAKNPVYLQMNSLKPEDTADYYCVSGTKRTGYGYWGQGTQVTVSS | high polyreactivity
QVQLVESGGGLVQAGGSLRLSCAASGSNFVGYAMGWYRQAPGKERELVAAISWSGDSTYYADSVKGRFTISRDNAKITVYLQMNSLKPEDTAVYYCAVDYAEIGPRREVEYDYWGHGTQVTVSS | low polyreactivity
QVQLVESGGGLVQAGGSLRLSCAASGSIFPSYAMGWYRQAPGKERELVATISGSGTSTYYADSVKGRFTISRDNAKNTVYLQMNSLKPEDTAVYYSAADPWLGTGRYDYWGQGTQVTVSS | low polyreactivity
QVQLQESGAGLVQAGVSLRLSCAASGYISTFSSEMGWYRQAPGKDRELVASIAPGCTTSYADSVKGRFTISRDKAKNTVFLQMNSLKPEDTAVYYCAVDYTVPASFGYWGQGTQVTVSS | high polyreactivity
QVQLVESGGGLVQAGGSLRLSCAASGSIFKGYAMGWYRQAPGKERELVASITSSGASTYYADSGKGRFTISRDNAKNTVYLHMNSLKPEDTAVYYCATDHESVRVLVSSTSDYDYWGQGTQVTVSS | low polyreactivity
QVHLVESGGGLVQAGGSLRLSCAASGSTFQSNAMGWYRQAPGKERELVATITQSGATTYYADSVKGRFTISRDNAKNTVYLQMNSLKPEDTAVYYCNVDTYQKRWFWLDLDGGYWGQGTQVTVSS | low polyreactivity
QVQLGDSGGGLVQAGGSLRLSCAASGFNFRTNTMGWYRQEPGKERELVAAITRSGGSTYYADSVKGRFTISSDNAKYTVYLQMNSLKPEDSAVYYCAKEYRRVVADFGYWGQGTQVTVSS | high polyreactivity
